In IntAct's records for PubMed 29892012:

B1: Abl interactor 2 (Homo sapiens), Q9NYB9 (parent)
chain: MAELQMLLEEEIPGGRRALFDSYTNLERVADYCENNYIQSADKQRALEETKAYTTQSLASVAYLINTLANNVLQMLDIQASQLRRMESSINHISQTVDIHKEKVARREIGILTTNKNTSRTHKIIAPANLERPVRYIRKPIDYTILDDIGHGVKWLLRFKVSTQNMKMGGLPRTTPPTQKPPSPPMSGKGTLGRHSPYRTLEPVRPPVVPNDYVPSPTRNMAPSQQSPVRTASVNQRNRTYSSSGSSGGSHPSSRSSSRENSGSGSVGVPIAVPTPSPPSVFPAPAGSAGTPPLPATSASAPAPLVPATVPSSTAPNAAAGGAPNLADGFTSPTPPVVSSTPPTGHPVQFYSMNRPASRHTPPTIGGSLPYRRPPSITSQTSLQNQMNGGPFYSQNPVSDTPPPPPPVEEPVFDESPPPPPPPEDYEEEEAAVVEYSDPYAEEDPPWAPRSYLEKVVAIYDYTKDKEDELSFQEGAIIYVIKKNDDGWYEGVMNGVTGLFPGNYVESIMHYSE

Variants of: B1
Details: with ift20_human IFT20, Q8IY31
Sequence of ift20_human IFT20, Q8IY31 (Q8IY31 whole entry): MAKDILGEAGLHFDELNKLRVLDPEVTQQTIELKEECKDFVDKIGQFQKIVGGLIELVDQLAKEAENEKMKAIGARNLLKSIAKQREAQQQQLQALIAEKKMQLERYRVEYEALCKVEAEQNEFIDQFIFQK

| Variant | effect of a mutation on the interaction |
| --- | --- |
| R373C | with no effect |

Variants of: B1
Details: with k1h1_human KRT31, Q15323
Sequence of k1h1_human KRT31, Q15323 (Q15323 whole entry): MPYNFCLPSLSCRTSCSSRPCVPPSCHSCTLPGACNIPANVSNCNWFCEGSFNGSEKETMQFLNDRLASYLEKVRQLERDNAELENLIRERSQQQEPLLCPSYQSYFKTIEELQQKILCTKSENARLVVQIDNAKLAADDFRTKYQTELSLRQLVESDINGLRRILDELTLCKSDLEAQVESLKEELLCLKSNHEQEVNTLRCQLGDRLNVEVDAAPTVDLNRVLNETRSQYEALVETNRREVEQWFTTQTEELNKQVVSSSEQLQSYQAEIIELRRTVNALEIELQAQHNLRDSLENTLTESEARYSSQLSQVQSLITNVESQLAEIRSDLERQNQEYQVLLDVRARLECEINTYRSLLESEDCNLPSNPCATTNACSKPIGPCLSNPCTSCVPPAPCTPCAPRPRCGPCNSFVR

| Variant | effect of a mutation on the interaction |
| --- | --- |
| R373C | with no effect |

Variants of: B1
Details: with aapk2_human PRKAA2, P54646

| Variant | effect of a mutation on the interaction |
| --- | --- |
| R373C | with no effect |

Variants of: B1
Details: with stam2_human STAM2, O75886

| Variant | effect of a mutation on the interaction |
| --- | --- |
| R373C | with no effect |

Variants of: B1
Details: with aapk1_human PRKAA1, Q13131
Sequence of aapk1_human PRKAA1, Q13131 (Q13131 whole entry, looked up): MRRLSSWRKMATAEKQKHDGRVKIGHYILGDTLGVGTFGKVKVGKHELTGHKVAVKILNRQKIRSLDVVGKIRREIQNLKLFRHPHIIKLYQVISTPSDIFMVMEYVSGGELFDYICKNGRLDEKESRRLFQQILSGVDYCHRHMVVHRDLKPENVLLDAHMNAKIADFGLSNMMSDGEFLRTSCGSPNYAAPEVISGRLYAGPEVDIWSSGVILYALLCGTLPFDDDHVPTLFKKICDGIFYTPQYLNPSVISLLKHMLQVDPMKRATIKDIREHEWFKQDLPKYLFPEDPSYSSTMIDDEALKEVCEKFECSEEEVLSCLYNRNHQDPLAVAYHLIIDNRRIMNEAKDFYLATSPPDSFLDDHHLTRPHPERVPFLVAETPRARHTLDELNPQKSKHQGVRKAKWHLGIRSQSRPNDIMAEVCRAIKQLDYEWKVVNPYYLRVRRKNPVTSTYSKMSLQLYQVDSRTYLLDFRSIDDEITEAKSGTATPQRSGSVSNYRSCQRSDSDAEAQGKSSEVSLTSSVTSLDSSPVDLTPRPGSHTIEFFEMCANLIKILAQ

| Variant | effect of a mutation on the interaction |
| --- | --- |
| R373C | with no effect |

Variants of: B1
Details: with hnrpk_human HNRNPK

| Variant | effect of a mutation on the interaction |
| --- | --- |
| R373C | with no effect |

Variants of: B1
Details: with vasp_human VASP

| Variant | effect of a mutation on the interaction |
| --- | --- |
| R373C | with no effect |

Variants of: B1
Details: with KRT15, P19012
Sequence of KRT15, P19012 (P19012 whole entry): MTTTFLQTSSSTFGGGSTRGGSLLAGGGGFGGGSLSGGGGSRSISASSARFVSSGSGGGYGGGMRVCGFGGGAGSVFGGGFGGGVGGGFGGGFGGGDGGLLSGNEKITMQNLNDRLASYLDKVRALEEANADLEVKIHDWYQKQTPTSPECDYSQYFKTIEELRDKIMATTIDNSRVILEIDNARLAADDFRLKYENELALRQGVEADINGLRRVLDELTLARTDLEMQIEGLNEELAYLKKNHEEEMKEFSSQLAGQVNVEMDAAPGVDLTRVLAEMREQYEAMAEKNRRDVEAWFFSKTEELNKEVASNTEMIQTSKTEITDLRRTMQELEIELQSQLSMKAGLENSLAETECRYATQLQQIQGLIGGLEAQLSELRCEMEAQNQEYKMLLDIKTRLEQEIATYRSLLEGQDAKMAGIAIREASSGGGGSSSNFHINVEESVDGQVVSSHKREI

| Variant | effect of a mutation on the interaction |
| --- | --- |
| R373C | with no effect |

Variants of: B1
Details: with nup62_human NUP62, P37198

| Variant | effect of a mutation on the interaction |
| --- | --- |
| R373C | with no effect |

Variants of: B1
Details: with KRT19, P08727
Sequence of KRT19, P08727 (P08727 whole entry): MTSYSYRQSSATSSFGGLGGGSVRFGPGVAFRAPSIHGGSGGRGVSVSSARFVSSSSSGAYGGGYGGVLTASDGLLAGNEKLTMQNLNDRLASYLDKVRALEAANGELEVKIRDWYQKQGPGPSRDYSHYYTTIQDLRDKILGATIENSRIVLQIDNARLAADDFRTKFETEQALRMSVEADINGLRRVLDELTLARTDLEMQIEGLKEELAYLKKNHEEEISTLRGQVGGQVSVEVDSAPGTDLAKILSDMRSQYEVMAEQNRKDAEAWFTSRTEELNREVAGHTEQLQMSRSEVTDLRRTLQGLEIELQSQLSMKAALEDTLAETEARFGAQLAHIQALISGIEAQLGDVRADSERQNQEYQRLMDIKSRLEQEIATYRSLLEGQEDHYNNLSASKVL

| Variant | effect of a mutation on the interaction |
| --- | --- |
| R373C | with no effect |

Variants of: B1
Details: with nck2_human NCK2, O43639
Sequence of nck2_human NCK2, O43639 (O43639 whole entry): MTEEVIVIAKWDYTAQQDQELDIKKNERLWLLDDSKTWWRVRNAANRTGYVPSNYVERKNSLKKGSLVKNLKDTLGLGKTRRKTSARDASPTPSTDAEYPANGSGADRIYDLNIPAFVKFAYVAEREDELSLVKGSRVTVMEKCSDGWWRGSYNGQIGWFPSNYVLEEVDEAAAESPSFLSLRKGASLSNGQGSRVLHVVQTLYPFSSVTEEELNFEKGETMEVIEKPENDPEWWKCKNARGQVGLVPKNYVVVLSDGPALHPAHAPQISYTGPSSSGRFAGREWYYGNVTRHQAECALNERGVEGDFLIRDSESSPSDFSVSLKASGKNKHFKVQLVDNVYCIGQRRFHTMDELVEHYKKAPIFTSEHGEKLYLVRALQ

| Variant | effect of a mutation on the interaction |
| --- | --- |
| R373C | with no effect |

Variants of: B1
Details: with hgs_human HGS

| Variant | effect of a mutation on the interaction |
| --- | --- |
| R373C | with no effect |

Variants of: B1
Details: with sdcb1_human SDCBP

| Variant | effect of a mutation on the interaction |
| --- | --- |
| R373C | with no effect |

Variants of: B1
Details: with tri32_human TRIM32, Q13049
Sequence of tri32_human TRIM32, Q13049 (Q13049 whole entry): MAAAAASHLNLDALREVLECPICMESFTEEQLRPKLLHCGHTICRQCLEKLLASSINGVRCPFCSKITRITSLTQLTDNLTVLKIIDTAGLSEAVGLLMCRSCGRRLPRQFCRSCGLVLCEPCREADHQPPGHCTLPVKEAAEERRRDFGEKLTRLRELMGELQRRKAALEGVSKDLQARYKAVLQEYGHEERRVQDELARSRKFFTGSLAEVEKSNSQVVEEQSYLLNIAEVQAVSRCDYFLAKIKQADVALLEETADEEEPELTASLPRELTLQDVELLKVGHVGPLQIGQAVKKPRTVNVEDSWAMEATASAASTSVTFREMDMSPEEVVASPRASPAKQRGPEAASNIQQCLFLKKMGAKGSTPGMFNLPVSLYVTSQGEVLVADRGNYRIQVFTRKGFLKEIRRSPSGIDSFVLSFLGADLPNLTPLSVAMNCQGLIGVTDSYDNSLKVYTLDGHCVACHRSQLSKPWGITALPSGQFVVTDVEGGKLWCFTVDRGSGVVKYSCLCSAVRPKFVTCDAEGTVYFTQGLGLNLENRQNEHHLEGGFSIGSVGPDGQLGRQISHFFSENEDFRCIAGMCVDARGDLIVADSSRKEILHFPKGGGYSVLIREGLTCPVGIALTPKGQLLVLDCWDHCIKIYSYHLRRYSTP

| Variant | effect of a mutation on the interaction |
| --- | --- |
| R373C | with no effect |

Variants of: B1
Details: with pcm1_human PCM1, Q15154
Sequence of pcm1_human PCM1, Q15154 (Q15154 whole entry): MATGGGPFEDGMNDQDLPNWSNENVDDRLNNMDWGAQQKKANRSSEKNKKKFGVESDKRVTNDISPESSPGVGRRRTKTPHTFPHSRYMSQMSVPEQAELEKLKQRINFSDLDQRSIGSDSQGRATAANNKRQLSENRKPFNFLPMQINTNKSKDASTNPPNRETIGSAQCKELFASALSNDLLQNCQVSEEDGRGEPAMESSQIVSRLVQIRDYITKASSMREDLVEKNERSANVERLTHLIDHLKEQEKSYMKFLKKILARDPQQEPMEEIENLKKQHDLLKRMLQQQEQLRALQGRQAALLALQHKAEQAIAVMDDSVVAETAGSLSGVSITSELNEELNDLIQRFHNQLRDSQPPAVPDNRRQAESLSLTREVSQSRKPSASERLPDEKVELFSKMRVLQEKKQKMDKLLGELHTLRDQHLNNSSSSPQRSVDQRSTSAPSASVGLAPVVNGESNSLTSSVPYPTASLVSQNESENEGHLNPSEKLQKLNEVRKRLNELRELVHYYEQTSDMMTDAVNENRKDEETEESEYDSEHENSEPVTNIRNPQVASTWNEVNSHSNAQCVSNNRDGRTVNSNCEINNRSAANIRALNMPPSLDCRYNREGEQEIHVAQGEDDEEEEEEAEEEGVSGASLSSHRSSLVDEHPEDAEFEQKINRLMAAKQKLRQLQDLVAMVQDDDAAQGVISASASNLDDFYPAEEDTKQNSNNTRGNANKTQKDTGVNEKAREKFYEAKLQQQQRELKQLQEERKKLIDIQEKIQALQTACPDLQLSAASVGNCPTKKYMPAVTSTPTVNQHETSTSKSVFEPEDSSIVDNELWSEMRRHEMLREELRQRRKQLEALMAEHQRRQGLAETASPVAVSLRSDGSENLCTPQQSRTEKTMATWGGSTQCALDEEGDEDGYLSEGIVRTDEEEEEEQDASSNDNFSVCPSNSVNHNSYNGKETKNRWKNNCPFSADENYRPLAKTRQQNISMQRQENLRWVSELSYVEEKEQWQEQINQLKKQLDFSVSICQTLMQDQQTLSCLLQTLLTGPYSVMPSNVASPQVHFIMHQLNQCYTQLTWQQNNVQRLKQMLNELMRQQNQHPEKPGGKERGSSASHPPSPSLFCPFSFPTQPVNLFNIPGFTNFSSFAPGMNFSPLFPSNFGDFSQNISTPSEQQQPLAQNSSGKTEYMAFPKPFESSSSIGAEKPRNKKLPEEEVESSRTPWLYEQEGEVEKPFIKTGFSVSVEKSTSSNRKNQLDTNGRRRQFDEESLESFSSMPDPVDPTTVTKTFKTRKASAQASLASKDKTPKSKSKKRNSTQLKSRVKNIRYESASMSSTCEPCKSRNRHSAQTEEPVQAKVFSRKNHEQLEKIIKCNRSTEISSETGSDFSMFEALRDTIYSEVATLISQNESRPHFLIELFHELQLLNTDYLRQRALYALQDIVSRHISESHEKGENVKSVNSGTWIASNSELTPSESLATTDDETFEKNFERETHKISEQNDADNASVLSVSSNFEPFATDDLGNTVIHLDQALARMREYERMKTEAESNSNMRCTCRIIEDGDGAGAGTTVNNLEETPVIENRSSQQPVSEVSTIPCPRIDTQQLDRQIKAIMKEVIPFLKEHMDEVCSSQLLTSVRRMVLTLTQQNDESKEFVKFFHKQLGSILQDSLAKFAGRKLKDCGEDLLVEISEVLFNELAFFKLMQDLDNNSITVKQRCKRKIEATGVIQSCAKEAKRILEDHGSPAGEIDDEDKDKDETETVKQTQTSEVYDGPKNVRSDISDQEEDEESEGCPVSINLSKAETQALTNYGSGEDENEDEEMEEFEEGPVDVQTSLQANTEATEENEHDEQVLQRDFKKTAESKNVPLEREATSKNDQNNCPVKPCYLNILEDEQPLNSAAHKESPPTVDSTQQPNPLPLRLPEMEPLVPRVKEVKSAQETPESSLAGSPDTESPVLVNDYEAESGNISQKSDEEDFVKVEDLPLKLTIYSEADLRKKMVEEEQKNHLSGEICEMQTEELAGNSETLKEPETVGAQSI

| Variant | effect of a mutation on the interaction |
| --- | --- |
| R373C | with no effect |

Variants of: B1
Details: with vinc_human VCL

| Variant | effect of a mutation on the interaction |
| --- | --- |
| R373C | with no effect |

Variants of: B1
Details: with crx_human CRX

| Variant | effect of a mutation on the interaction |
| --- | --- |
| R373C | with no effect |

Variants of: B1
Details: with mr1l1_human MRFAP1L1, Q96HT8

| Variant | effect of a mutation on the interaction |
| --- | --- |
| R373C | with no effect |

Variants of: B1
Details: with efs_human EFS

| Variant | effect of a mutation on the interaction |
| --- | --- |
| R373C | with no effect |
